This note sets out measurements from the DeepSol protein solubility set.

The series in a line: soluble on expression in E. coli; label from the status in PepcDB or PDB records.
As to “ASWSHPQFEKGAMSNYSMSRGHSDKCVGAEDILSEIKEAEKVLNAASDELKREGHNVKTFIDRTSTTQSANLNKIVNWHNANPADVHISVHLNAGKGTGVEVWYYAGDEKGRKLAVEISAKMAKALGLPNRGAKATKDLRFLNSTKGTAVLLEVCFVDRKEDANAIHKSGMYDKLGIAIAEGLTGKTVAAKNPNRHSGAVVDSVPMLSKMDFKSSPIKMYKAGSSLLVYEHNKYWYKAYINDKLCYIYKSFCISNGKKDAKGRIKVRIKSAKDLRIPVWNNTKLNSGKIKWYSPGTKLSWYDNKKGYLELWYEKDGWYYTANYFLK”, the “soluble on expression in E. coli” value is given as “soluble”.
On to “ATDVAARGLDISGVTHVYNYDIPQDPESYVHRIGRTGRAGKEGMAITFVQPREMGYLRIVEETTKKRMQPLQAPTWDEAFAGQLRVATEKIQEAITEENLADYKTFANELLEKYDATDIAAAMLKMLAKEPDKTPVHITEERPLPSRGGGGYKGK”, for which the “soluble on expression in E. coli” value is given as “not soluble”.
As to “DAAPAPAAEAAPAAAPAPAAAAELKEVHVPDIGGDEVEVTEIMVAIGDSIEEEQSLITVEGDKASMEVPAPFAGTLKEIKVAAGDKVSTGSLIMVFETAGSGAPAAPAAVEAPAAAAPAASAA”, the “soluble on expression in E. coli” value is “not soluble”.
For “DDEITREPRKVVLHRGSTGLGFNIVGGEDGEGIFISFILAGGPADLSGELRKGDRIISVNSVDLRAASHEQAAAALKNAGQAVTIVAQYRPEEYSRQHA” the value was “soluble”; for “DDGEPYALCVVATDITDQKQRERELARLTDEYAAVFENTNDAIALVDIEEPADDPTFRYVRTNEAYERQTGFDTESLTGQTPVEAAGPDIGRRIADHYKQCVSAGEPITFEERDLHPTGVWETQVTPIAADG”, “not soluble”; for “DEAMVKIEKQEIVEHLSENSLLVQLKYAGASTDEPLLNELYKHYQVMANILYGNIEILDGTPVGELVVVLSGEKAALAGAQEAIRQAGVQLKVLKGVQ”, “not soluble”.
As for “DFELLHKLGGGNYGDVHLASVKDCNFVCALKRLSIKKLADFDIATQLRREIEIAFNTRHKYLLRTYAYFFDETDIYLIMEPCSNGMLYTELNRVKCFAPPTAARYVAQLAEALLYLHQHHILHRDIKPENILLDHNNNIKLADFGWSVHDPDNRRKTSCGTPEYFPPEIVGRQAYDTSADLWCLGIFCYELLVGKTPFVGKDTDQICKNIHSMHFKIPENIPSEAKDLIANLLLRDGSRRLALHRVVNHQFLLKYYYLPNNL”, the “soluble on expression in E. coli” value is given as “soluble”.
Turning to “DFVGGTKMNMPAAQLETSEVADTFKDATGIEPELVQIVGSGDTRILEINSERLSEDQISQARVALFEKYQPVGSQGQPTPDAIGDSTVSESWGSTITQR”, the “soluble on expression in E. coli” value is recorded as “not soluble”.
On to “DGPGDGFTILSSKSLVLGQKLSLTQSDISHIGSMRVEGIVHPTTAEIDLKEDIGKALEKAGGKEFLETVKELRKSQGPLEVAEAAVSQSSGLAAKFVIHCHIPQWGSDKCEEQLEETIKNCLSAAEDKKLKSVAFPPFPSGRNCFPKQTAAQVTLKAISAHFDDSSASSLKNVYFLLFDSESIGIYVQEMAKL”, for which the “soluble on expression in E. coli” value is “soluble”.
The value for “DIELTQSPASLSVATGEKVTIRCMTSTDIDDDMNWYQQKPGEPPKFLISEGNTLRPGVPSRFSSSGTGTDFVFTIENTLSEDVGDYYCLQSFNVPLTFGCGTKLEIK” was “soluble”; that for “DIKMTQSPSSMSASLGESVTITCKASRDIKSYLSWYQQKPWKSPKTLIYYATSLADGVPSRFSGSGSGQDYSLTISSLESDDTATYYCLQHGESPFTFGSGTKLELKRADAAPTVSIFPPSSEQLTSGGASVVCFLNNFYPKDINVKWKIDGSERQNGVLNSWTDQDSKDSTYSMSSTLTLTKDEYERHNSYTCEATHKTSTSPIVKSFN” was “soluble”; that for “DIQMTQSPSSLSASVGDRVTITCRASGNIHNYLAWYQQKPGKAPKLLIYYTTTLADGVPSRFSGSGSGTDYTFTISSLQPEDIATYYCQHFWSTPRTFGQGTKVEIKR” was “soluble”.
On to “DIQMTQSPSSLSATLGGKVTITCKASQDINKYIAWYQHKPGKGPRLLIHYTSTLQPGNPSRFSGSGSGRDYSFSISNLEAEDIAIYYCLQYDNLQRTFGGGTKVEIKRADAAPTVSIFPPSSEQLTSGGASVVCFLNNFYPKDINVKWKIDGSERQNGVLNSWTDQDSKDSTYSMSSTLTLTKDEYERHNSYTCEATHKTSTSPIVKSFNRNE”, for which the “soluble on expression in E. coli” value is on record as “soluble”.
Turning to “DITLSKLAMGGKPTPFGLDESELSNALMLLRDCPQVSLKGFHFHLMSHQLDVERHLALMQRYFQVVKTWQQEFELGELMINLGGGMGINYQNPEQHFPWMEFCDKLEFLIAKEQVQDWTLRFECGRFITAACGYYVMEVLDIKQNLGESYVIARGGTHHFRTPAAQSHDHPFVILKSEQHHEISHPIQHAQATFVGQLCTPKDVLARNQHVAHVDIGDYVVFTLAGAYAWNISHQNFLMHEPPIFHYF”, the “soluble on expression in E. coli” value is listed as “not soluble”.
For “DLYFNPRFLADDPQAVADLSRFENGQELPPGTYRVDIYLNNGYMATRDVTFNTGDSEQGIVPCLTRAQLASMGLNTASVAGMNLLADDACVPLTTMVQDATAHLDVGQQRLNLTIPQAFMSNRAR” the value was “soluble”.
Turning to “DNPINIAVPGVAQQNVSATINNGTLTRRGNLWIARPTKVGSEAIISVTAQSGGRTIQMAKTTLRVRALPDPLPYIEYKDVQGNTKRFKGGRLGKREILAAGGIKAALDDDLLEVNYTVVKFQLVFYDSMGNSIPEVSDGASFSERQKRQIQNLGKGKRFYVTEVIARGPDGIERKIPAIEVIVN”, the “soluble on expression in E. coli” value was “not soluble”.
As to “DPDTRIPVINLEDGTRLVGEDAPKNKDLVEWLKLHPTYTVDMPSYVPKNADVLFSSFQKPKQKRHRCRNPNKLDINTLTGEERVPVVNKRNGKKMGGAMAPPMKDLPRWLEENPEFAVAPDWTD”, the “soluble on expression in E. coli” value is listed as “soluble”.
For the sequence “DSSALPTKRKTVKLFWRELKLAGGHGVSASRFGPCATLWASLDPVSVDTARLEHLFESRAKEVLPSKKAGEGRRTMTTVLDPKRSNAINIGLTTLPPVHVIKAALLNFDEFAVSKDGIEKLLTMMPTEEERQKIEEAQLANPDIPLGPAENFLMTLASIGGLAARLQLWAFKLDYDSMEREIAEPLFDLKVGMEQLVQNATFRCILATLLAVGNFLNGSQSSGFELSYLEKVSEVKDTVRRQSLLHHLCSLVLQTRPESSDLYSEIPALTRCAKVD”, the “soluble on expression in E. coli” value was “not soluble”.
Turning to “DTPEPPLHNFYCSKLLDLVFLLDGSSMLSEAEFEVLKAFVVGMMERLHISQKRIRVAVVEYHDGSRAYLELKARKRPSELRRITSQIKYTGSQVASTSEVLKYTLFQIFGKIDRPEASHITLLLTASQEPPRMARNLVRYVQGLKKKKVIVIPVGIGPHASLKQIRLIEKQAPENKAFLLSGVDELEQRRDEIVSYLCDLAPEAPAPT”, the “soluble on expression in E. coli” value is listed as “soluble”.
The value for “DVKVQGCVEDADLLIVGFGGTYGHLYSAMEEMNHAGKKVALAHFVHLNPLPHNTAEVLKKYKKVVVAEQNLGQFAGYLRMKVDGFVPYQFNEVKGQPFVVSELVDAFTEILNK” was “not soluble”; that for “DVQLQESGPGLVKPSQSLSLTCTVTGYSITNNYAWNWIRQFPGNKLEWMGYINYSGTTSYNPSLKSRISITRDTSKNQFFLQLNSVTTEDTATYFCVRGYDYFAMDYWGQGTSVTVSSAKTTPPSVYPLAPGSAAQTNSMVTLGCLVKGYFPEPVTVTWNSGSLSSGVHTFPAVLQSDLYTLSSSVTVPSSTWPSETVTCNVAHPASSTKVDKKIVPRDCG” was “soluble”.
The value for “DVVSYVSHATQQRLQNLVEKISETAQQKNFSYKDDDRYEQASDVRAQLKFFEQLDQIEKQRKDEQEREILMRAAKSRSRQEDPEQLRLKQKAKEMQQQELAQMRQRDANLTALAAIGPRKKRKVDCPGPGSGAEGSGPGSVVPGSSGVGTPRQFTRQRITRVNLRDLIFCLENERETSHSLLLYKAFLK” was “soluble”; that for “DVVVTQTPLSLPVSLGDQASISCRSSEVIVTRNGYTPIEWYLQKPGQSPKLLIYKAYKRFPGVPDRFSGSGSGTDFTLKISRVEAEDLGVYYCFDGSTVPPKFGGGTKLEIKRADAAPTVSIFPPSSEQLTSGGASVVCFLNNFYPKDINVKWKIDGSERQNGVLNSWTDQDSKDSTYSMSSTLTLTKDEYERHNSYTCEATHKTSTSPIVKSFNRDEC” was “soluble”.
For “DYESPIVNVVEACAPAVVKIDVVKTVKTSFFDPYFEQFFKKWFGELPPGFERQVASLGSGFIFDPEGYILTNYHVVGGADNITVTMLDGSKYDAEYIGGDEELDIAVIKIKASDKKFPYLEFGDSDKVKIGEWAIAIGNPLGFQHTVTVGVVSATNRRIPKPDGSGYYVGLIQTDAAINPGNSGGPLLNIHGEVIGINTAIVNPQEAVNLGFAIPINTVKKFLDTILTQKKVEKAYLGV” the value was “soluble”; for “EAPLLYGDSSPEIVLVGHGSTYGVIKEIVDIFSKDKKIAMMHFSQIYPFPERDRFDYIEFLKNANLVISVENNATGQFAKLMRAETGFEFARQILKYDGRPFTIEKLKEEIDACL”, “not soluble”; for “EDDEDYGDLGGCPFLVAENKTGYPTIVACKQDCNGTTETAPNGTRCFSIGDEGLRRMTANLPYDCPLGQCSNGDCIPKETYEVCYRRNWRDKKNHHHHHH”, “soluble”.
As for “EEGLSGSKTFKIITKDYDIMNKEIKERLGRYCTFTKVTIDEENNSFVEISCVINKLEEQKLKEIINDVDPDAFIAIYDTAEVKAGNMKKSDIY”, the “soluble on expression in E. coli” value is “soluble”.
For “EEPTIGDIYNGKVTSIMQFGCFVQLEGLRKRWEGLVHISELRREGRVANVADVVSKGQRVKVKVLSFTGTKTSLSMKDVDQETGEDLNPNRRRNLV” the value was “soluble”; for “EEVTVVAFAKQKKESVIGSIQTVKPAELKTPSSNLTTSLAGRMAGVIAYQRSGEPGKDNANFFIRGVTTFGYKKDPLILLDNVEVSSDDLARVQPDDIASFSVLKDATSTALYGARGANGVILVTTKEGKEG”, “not soluble”; for “EFKDVFIEKQKGEILGVVIVESGWGSILPTVIIANMMHGGPAEKSGKLNIGDQIMSINGTSLVGLPLSTCQSIIKGLKNQSRVKLNIVRCPPVTTVLIRRPDLRYQLGFSVQNGIICSLMRGGIAERGGVRVGHRIIEINGQSVVATPHEKIVHILSNAVGEIHMKTMPAAMYRLLTAQEQPVYI”, “soluble”.
Regarding “EFSGSFNRQFKLNKPVIPVNTEYVTRKEFNEYKDSNDQRLTKIENKVDKLEIKVDKLEKKVDKLEVKVDKLVETVNAQGEDLNNFKVEVRGTLQSQGETLQLILQTLQGMSKRLDSVEGRLDSMDGRLDSMETRLDKID”, the “soluble on expression in E. coli” value is recorded as “soluble”.
For “EHGPVTFVPDTPIESRARLSLPKQLVLRQSIVGAEVGVWTGETIPVRTCFGPLIGQQSHSMEVAEWTDKAVNHIWKIYHNGVLEFCIITTDENECNWMMFVRKARNREEQNLVAYPHDGKIFFCTSQDIPPENELLFYYSRDYAQQIGVPE”, the “soluble on expression in E. coli” value is on record as “soluble”.
The value for “EHQAILSKRLESVESDIRLEQNTMDMTRIDARKMQMTGDLIMKNSVTVGGIAGASGQYAATQERSEQQISQVNNRVASTASDEARESSRKSTSLIQEMLKTMESINQSKASALAAIAGNIRA” was “not soluble”.
